The record followed here is patent US20260274944A1 (published 2026).

Changes are numbered by the printed parent chain.

Assay [1] addresses T1, human RAGE (hRAGE) fused to EGFP, stably expressed on CHO cells (human, UniProt Q15109 23-404). Kind of assay: flow cytometry on CHO-hRAGE-EGFP cells; apparent Kd; column head prints TfR, legend says RAGE.
The target of assay [2] is T2, mouse RAGE (mRAGE) fused to EGFP, expressed on CHO cells (mouse, UniProt Q62151 23-402).
T2 chain: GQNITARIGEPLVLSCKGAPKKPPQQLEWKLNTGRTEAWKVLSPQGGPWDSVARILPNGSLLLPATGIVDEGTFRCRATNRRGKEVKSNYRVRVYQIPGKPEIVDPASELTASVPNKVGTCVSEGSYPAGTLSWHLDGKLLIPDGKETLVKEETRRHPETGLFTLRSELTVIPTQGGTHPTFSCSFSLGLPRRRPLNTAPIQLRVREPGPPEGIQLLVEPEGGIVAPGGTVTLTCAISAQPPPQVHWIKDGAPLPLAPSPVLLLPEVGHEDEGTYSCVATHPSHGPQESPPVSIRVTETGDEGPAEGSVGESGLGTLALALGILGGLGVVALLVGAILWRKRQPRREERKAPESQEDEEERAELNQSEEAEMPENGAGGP
Put plainly: flow cytometry on CHO-mRAGE-EGFP cells; apparent Kd; column head prints TfR, legend says RAGE. (Flow cytometry measures light scatter and fluorescence of single cells or particles in a stream.)

In assay [3] the target is T2, mouse RAGE (mRAGE) fused to EGFP, …. Kind of assay: flow cytometry on CHO-mRAGE-EGFP cells; apparent Kd.
The target is the same in assay [4]. The description is as above.
For assay [5] the target is unchanged. Kind of assay: flow.
Assay [6] has the same target. Put plainly: flow.
In assay [7] the target is T1, human RAGE (hRAGE) fused to EGFP, …. Kind of assay: flow cytometry on CHO-hRAGE-EGFP cells; apparent Kd.

T1 sequence (Q15109 23-404): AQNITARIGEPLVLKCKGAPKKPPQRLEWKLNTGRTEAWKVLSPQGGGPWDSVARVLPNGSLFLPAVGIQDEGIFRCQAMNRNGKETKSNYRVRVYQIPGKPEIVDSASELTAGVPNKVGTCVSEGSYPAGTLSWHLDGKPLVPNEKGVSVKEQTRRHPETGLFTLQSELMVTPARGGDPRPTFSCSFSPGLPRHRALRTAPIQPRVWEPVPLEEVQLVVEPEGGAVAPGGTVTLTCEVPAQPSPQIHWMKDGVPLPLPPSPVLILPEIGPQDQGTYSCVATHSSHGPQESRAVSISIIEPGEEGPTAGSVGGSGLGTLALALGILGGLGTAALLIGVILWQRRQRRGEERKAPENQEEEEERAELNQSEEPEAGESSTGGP

B1: VHH 2-Fc (Fc fusion)
chain: QVQLVQSGGGLVQAGGSLRLSCAASGSVSSIYAMGWYRQAPGKQREWVTTITGRGITDYAASVKGRFTISRDTAKNAVYLQMNNLKPEDTARYYCKIDRRGYAPYWGQGTQVTVSS
As for B1, the Kd in assay [1] came out at 3.6 nM; in assay [2] it was 9.6 nM.

B2: VHH 2-siTTRm (antibody, V domains shown)
VH: B1 chain
For the molecule B2, the Kd in assay [3] came to 119 nM.

B3: VHH 2 (VHH)
VHH: B1 chain
As to B3, in assay [4], the Kd was found to be 526 nM.

B4: VHH 3 (VHH)
VHH: QVQLVQSGGGLVQAGGSLRLSCVASGRTFSNYAMAWFRQAPGEEREFVARISWSGGRTSYADSVKGRFTISRDNAKNTVYLQMISLKPEDTAVYYCATEAGAFGGVYSSTGSYDYWGQGTQVTVSS
Consider B4, for which the Kd in assay [5] came out at 80 nM.

B5: VHH 4-siTTRm (antibody, V domains shown)
VH: B4 VHH with Q1E, Q6E, S54R, T98S, A100G, S109A
Turning to B5, in assay [3], the Kd was 11 nM.

B6: VHH 4-Fc (Fc fusion)
chain: B4 VHH with Q1E, Q6E, S54R, T98S, A100G, S109A
B6: the Kd in assay [2] was determined as 1.4 nM.

B7: VHH 3-Fc (Fc fusion)
chain: B4 VHH
The molecule B7 displayed a Kd in assay [6] of 1.4 nM.

B8: VHH 1-Fc (Fc fusion)
chain: QVQLVQSGGGLVQPGGSLRLSCAVSGSIFSSATMGWYRQAPGKQRELAARISSGGSTNYLDSVKGRFTISRDNAKNTVYLQMNSLKLEDTAVYYCRLQANFGLVDYWGKGTQVTVSS
For B8, the Kd worked out at 154 nM in assay [1] and 1.9 nM in assay [2].

B9: VHH 1 (VHH)
VHH: B8 chain
Take B9: the Kd in assay [7] was 347 nM; in assay [4], 320 nM.

B10: VHH 5-Fc (Fc fusion)
chain: EVQLVESGGGLVQPGGSLRLSCAASGTIFSLNPMGWYRQAPGKQLELVALISDSGTANYADFVRGRFTISRDTTKKTLYLQMNSLEPEDTAVYYCRSTFAAGNFYWGQGTQVTVSS
On to B10, for which the values for the Kd in assay [1] and in assay [2] were 3.2 nM and 153 nM, respectively.
